Assay results reported in patent US20070196354A1, “Method of treating diabetes by inhibiting degradation of at least one of crebl1, atf6, and hnf-4 alpha by htra” (priority 2003, published 2007).

Tests used:
CREBL1 = biological target: T1, CREBL1 (Homo sapiens, UniProt Q99941); assay: In vitro protease assay, CREBL1 captured on resin; type: biochemical; conditions: 50 μg/ml, 37° C., overnight (O/N), anti-c-Myc detection
T1 construct: expressed in transfected cells; host or cells: HEK293T
T1 sequence (Q99941 1-703): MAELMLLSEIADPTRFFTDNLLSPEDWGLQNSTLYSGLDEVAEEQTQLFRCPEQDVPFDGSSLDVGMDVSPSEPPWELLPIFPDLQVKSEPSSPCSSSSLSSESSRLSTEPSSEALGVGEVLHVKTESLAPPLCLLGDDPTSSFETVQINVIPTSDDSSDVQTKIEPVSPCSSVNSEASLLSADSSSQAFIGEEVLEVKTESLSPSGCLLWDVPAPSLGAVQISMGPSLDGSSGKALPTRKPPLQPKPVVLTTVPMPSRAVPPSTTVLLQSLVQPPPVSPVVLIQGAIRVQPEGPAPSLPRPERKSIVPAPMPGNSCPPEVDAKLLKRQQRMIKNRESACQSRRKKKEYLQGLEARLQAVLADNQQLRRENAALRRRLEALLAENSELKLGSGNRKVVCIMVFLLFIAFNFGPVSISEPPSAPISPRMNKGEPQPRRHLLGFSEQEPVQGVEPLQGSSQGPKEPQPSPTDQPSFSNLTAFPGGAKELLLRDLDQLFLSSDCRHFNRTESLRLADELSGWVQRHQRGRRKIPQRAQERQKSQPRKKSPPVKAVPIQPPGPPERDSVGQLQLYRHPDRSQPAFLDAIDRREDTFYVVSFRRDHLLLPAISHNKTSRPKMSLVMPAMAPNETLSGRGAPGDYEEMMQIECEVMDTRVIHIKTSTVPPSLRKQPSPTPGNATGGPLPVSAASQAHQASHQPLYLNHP
Procedure: (§1) CREBL1 and ATF6 which were captured on the resin were used in the experiments in order to eliminate the influence of proteinaceous impurities contained in the soluble fractions prepared from the cells obtained by transfecting an expression plasmid of CREBL1 or ATF6. Three hundreds μl of each soluble fraction of CREBL1 and ATF6 was dispensed to six tubes (Nos. 1 to 6), followed by adding 20 μl of protein G sepharose 4 FF (Amersham) of 50% slurry that had been subjected to blocking with BSA, to each of tubes, subjected to overturned mixing at 4° C. for 1 hour, and then subjected to centrifugation (10,000 rpm, 10 sec, 4° C.) to collect the supernatant, and thus the pre-treatment (pre-clean) was performed. The resultant supernatant was mixed with 1.7 μl (2 μg) of anti-Myc antibody (Invitrogen), subjected to overturned mixing at 4° C. for 3 hours, followed by adding 20 μl of protein G sepharose 4 FF that had been subjected to blocking with BSA, and then subjected to overturned mixing at 4° C. overnight. Thus, CREBL1 and ATF6 were respectively captured on protein G sepharose 4 FF. […]

ATF6 = biological target: T2, ATF6 (Homo sapiens, UniProt P18850); assay: In vitro protease assay, ATF6 captured on resin; type: biochemical; conditions: 50 μg/ml, 37° C., four hours (4 h) or overnight (O/N), anti-c-Myc detection
T2 construct: expressed in transfected cells; host or cells: HEK293T
T2 sequence (P18850 1-670): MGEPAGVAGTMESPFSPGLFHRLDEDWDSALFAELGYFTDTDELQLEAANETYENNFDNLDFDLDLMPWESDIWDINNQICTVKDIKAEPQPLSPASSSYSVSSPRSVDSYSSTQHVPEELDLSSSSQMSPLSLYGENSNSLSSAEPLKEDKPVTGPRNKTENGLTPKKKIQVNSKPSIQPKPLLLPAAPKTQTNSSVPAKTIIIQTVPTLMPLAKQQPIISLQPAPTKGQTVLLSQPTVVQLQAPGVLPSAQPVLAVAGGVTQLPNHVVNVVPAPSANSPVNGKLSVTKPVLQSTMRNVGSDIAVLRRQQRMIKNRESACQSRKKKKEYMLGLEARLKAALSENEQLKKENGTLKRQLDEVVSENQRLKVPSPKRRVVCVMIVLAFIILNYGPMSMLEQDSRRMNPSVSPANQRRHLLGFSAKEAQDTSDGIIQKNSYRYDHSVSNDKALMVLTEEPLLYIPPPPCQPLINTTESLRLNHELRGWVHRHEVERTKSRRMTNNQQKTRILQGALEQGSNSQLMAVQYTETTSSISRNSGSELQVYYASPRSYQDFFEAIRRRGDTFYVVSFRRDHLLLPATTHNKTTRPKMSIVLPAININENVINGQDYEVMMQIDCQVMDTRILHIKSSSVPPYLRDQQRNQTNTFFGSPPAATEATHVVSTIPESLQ
Procedure: as §1

B1: mature HtrA2: SEQ ID NO: 4; mature protein generated from HtrA2 precursor by cleavage of N-terminal 133 residues, has protease activity (protein, listed as Homo sapiens)
chain: MAVPSPPPASPRSQYNFIADVVEKTAPAVVYIEILDRHPFLGREVPISNGSGFVVAADGLIVTNAHVVADRRRVRVRLLSGDTYEAVVTAVDPVADIATLRIQTKEPLPTLPLGRSADVRQGEFVVAMGSPFALQNTITSGIVSSAQRPARDLGLPQTNVEYIQTDAAIDFGNSGGPLVNLDGEVIGVNTMKVTAGISFAIPSDRLREFLHRGEKKNSSSGISGSQRRYIGVMMLTLSPSILAELQLREPSFPDVQHGVLIHKVILGSPAHRAGLRPGDVILAIGEQMVQNAEDVYEAVRTQSQLAVQIRRGRETLTLYVTPEVTE
modifications: mature HtrA2
- degradation of CREBL1 (band by western blotting) (CREBL1): the band of CREBL1 was reduced significantly
- degradation of ATF6 (band by western blotting) (ATF6): the band of ATF6 was reduced significantly
